The values below come from patent US20210045419A1 (UNIVERSITY OF MANITOBA, published 2021).

The target in the test is T1, bitter taste receptor T2R4 (UniProt Q9NYW5 1-299, limits assumed).
T1 sequence (looked up): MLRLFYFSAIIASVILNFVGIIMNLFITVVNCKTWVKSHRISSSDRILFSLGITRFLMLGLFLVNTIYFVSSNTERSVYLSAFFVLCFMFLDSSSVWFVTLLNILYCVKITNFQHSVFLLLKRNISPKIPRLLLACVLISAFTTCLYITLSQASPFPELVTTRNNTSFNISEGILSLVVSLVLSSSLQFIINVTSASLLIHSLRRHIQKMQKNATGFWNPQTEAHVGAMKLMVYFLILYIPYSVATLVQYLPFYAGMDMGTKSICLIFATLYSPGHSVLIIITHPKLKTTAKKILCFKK
As to the kind of experiment: cell-based or functional assay.

Turning to AGDDAPRAVF [AGDDAPRAVF (SEQ ID No:5)], the “IC50, peptide and quinine (1 mM) competition calcium mobilization assay on T2R4-expressing HEK293T cells” value stood at 85 µM.
